# From the RNAGym collection of RNA variant scans (doi:10.1073/pnas.2313332121)
# B1: TPR t1 (parent)
# chain: GACCAAUCUGCCCUCAGAGCUCGAGAACAUCUUCGGAUGCAGAGGAGGCAGGCUUCGGUGGCGCGAUAGCGCCAACGUCCUCAACCUCCAAUGCAUCCCACCACAUGAUGAUGCCUGAAGAGCCUUGGUUUUUUG
# Variants of: B1
# Experiment: polymerase ribozyme fitness, log enrichment relative to wild type (log ratio); higher = more active; in vitro selection for triplet polymerase activity
# How it was run: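 Mutant libraries of both subunits of a heterodimeric triplet polymerase ribozyme were PCR-built, transcribed, and selected once in triplicate, with frozen incubation at −7 °C and capture of gel-excised extended constructs on streptavidin beads before RT-PCR. Illumina sequencing of input and output libraries was filtered to genotypes with ≥10 input reads and ≥1 read per output. Fitness is the logarithm of genotype enrichment over wild-type enrichment, using inverse-variance-weighted replicate averages. The logarithm is base 2.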
row,Variant,polymerase ribozyme fitness (log ratio)
1,C53G U78C U81A C101A G120C A121C,-2.66
2,G19C G52A A119U,-3.63
3,C12A G63C,-1.33
4,C70U U96G U125A,-1.32
5,G44C C64U,-0.652
6,G71A G127U,-0.848
7,C13U A84U,-0.00977
8,C73A C89U G110C,-5.15
9,G36U G63C C76G G117A,-5.18
10,U9G A37U C40U G45A C104U,-0.895
11,C53A C56U C72G A111C,-1.38
12,C72G U106C,-0.865
13,C15A A37U G57A G61C,-3.97
14,G47U G63C,-2.32
15,C11U G42C C64U C94U,-1.83
16,A43C C56U C82A A91U G93U U96C C124G,-2.46
17,U78A C94G A118U G120C U132A,-0.124
18,A18U G44C C73A A90C,-1.95
19,A5C U9G C80U A90U U92A,-2.94
20,G44C G45A G61U U78G,-4.37
21,U81G U87C,-2.82
22,A41U U112A,-0.325
23,U7A C12G A27C G122A U130C,-2.81
24,G44A G93C,-2.23

row,Variant,polymerase ribozyme fitness (log ratio)
1,C70G C94G C123A,-3.58
2,A37C G45C A111G C124U,-2.52
3,C53A G60A U78C,0.136
4,U14C G60C U96A,-3.46
5,A68U C102A,-6.73
6,G61U C97G G122U,-3.87
7,C3U G39A G69A A105C G120U G128C,-6.86
8,C4U G71U C114G U132A,-3.02
9,C20U G122A,-2.04
10,C88G G110U,-2.67
11,G47A G58A G60A C79U,-2.31
12,C70U C101G,-2.81
13,C8G C20U G113C,-1.52
14,C13U C72G U81C A95C A119U,-1.87
15,A100U U132A,-0.727
16,G63C C72A C79G,-5.56
17,C70G A74U,-4.98
18,A37G C53A G63U U125A,-3.34
19,C28A C88U C101U,-5.29
20,U106G U112A G120C,-3.09
21,C89G C97A A100U C114A,-7.31
22,G42C C79U A95G U129C,-2.57
23,G61A U129G,-1.24
24,A27G C28U G47U G58C,-3.68

row,Variant,polymerase ribozyme fitness (log ratio)
1,G45U G71C,-2.68
2,C53U C72A C123A G128U,-0.319
3,C56U A74C A75U C124U,0.971
4,C15G A26C U54G G71U C114U,-5.95
5,G44U G69C A121G,0.0622
6,G57A G58C G63A C89A,-6.16
7,G47C C114U,-3.1
8,C89U G110U,-2.22
9,C56G C97A,-5.24
10,U59A C72A,-1.18
11,C13A C79A,-3.23
12,G10A C82A C102U,-1.68
13,G42A C89A A108G,-4.56
14,C11A G61C A100C A121U,-1.61
15,C11G G17A G71U U81A C85U G117C,-6.69
16,C4G C115U,-2.19
17,C8A A37G C62G C99U G122A,-6.04
18,A2G G47A C72G,-0.743
19,G44U C70A U116C,-4.01
20,A27U A46U G61A C85U C94U,-3.53
21,U9A C53A C86U,0.27
22,C34U A90U,-4.66
23,C8G A37C G48U C85A,0.211
24,A24G U59G,-1.69

row,Variant,polymerase ribozyme fitness (log ratio)
1,A2U G77A,-2.8
2,A24G G36C C49A G71U,-3.84
3,U7A A43U C70G,-6.28
4,C4U G52U C73A,-0.845
5,C4A A46U C56U C72G C123G,-4.32
6,G63C C97U,-0.711
7,A41G A103C,-5.33
8,A27U G63A G69U U131C,-4.16
9,G61A A95U,0.338
10,C15U U32C,-1.42
11,A46U U87G G93A C98U,-1.2
12,A84G G120A C123A,-0.958
13,C20U C101U,-1.97
14,C72A C73G C86U C115A C123G,-0.582
15,C62U U92G C99A C124U U131C,-5.96
16,C98A A111U G122A C124G,-6.05
17,A16G A37U G71U A90G,-1.9
18,A50U U81A C85G,-0.884
19,C11U C15A A26G C53G G61U G120C,-4.04
20,C15G G25U C34G G60C U109G,-6.48
21,C40U G48U C62G,-3.32
22,C8G C12A G39A C85U U112A G113C,-1.36
23,C11U A41U G52U U125A,-3.07
24,U14G C53U C85A C88G,-3.97

row,Variant,polymerase ribozyme fitness (log ratio)
1,C3G C4G U7C C53A C123U,1.4
2,C4U G69U C72G C124G,0.464
3,A50C C70A C82G A84C,-2.37
4,C8U C56U C70U C73A,-2.03
5,G61U G120C,1.18
6,U126G G127A,-2.54
7,G51U C56U,-2.11
8,U81G C101A U106A,-2.9
9,G10U G110U C114U,-3.42
10,G47C G63U A90U,-5.15
11,U14G C62U,-1.97
12,C3A G39A U54C C70U C104U,-2.33
13,A90C G128C,-3.68
14,C31G C73A,-6.15
15,U9A C53A U87G,0.985
16,A37U G48U G57U G60U U129C,-1.31
17,A6C G61A U92A,-3.09
18,C22A G23A G35A C82G C89U C104U A111U,-6.73
19,G47U U81A,-3.01
20,G42C G47U G52C C114A A118G,-6.7
21,C28G G93U A119G U129C,-4.2
22,U7G G65U C72U C73U U112G,-6.23
23,C70U C88G U132C,-1.25
24,C20U G52A G120A,-1.57

row,Variant,polymerase ribozyme fitness (log ratio)
1,A29G U126A,-2.42
2,C8U C34A G44U G61U U130G,-4.49
3,C40G G48U U92A,-4.05
4,G23A C94A A111G,-5.95
5,G36A C115U,-1.88
6,A68G A100C,-4.96
7,C8A C11G A16U A43C U78C U125A,-1.72
8,G39U,-0.799
9,C70A G135U,-1.99
10,G25A A74U A100C U109A U130A,-6.43
11,C8U U96A,-0.0448
12,U81C C102U,-2.2
13,G36U C64U,-1.21
14,U9G G45U A74C G77A U112C,0.536
15,C15A A46U C76U C101U C115U,-4.21
16,G107U C123G,-2.37
17,A66C C86U C114G U129G,-4.68
18,C64U U130G,-0.668
19,C8A C22U U129G,-4.85
20,A41U G69U,-0.159
21,C64A C123A,-3.79
22,U38A C82A C114A G120C A121C U132C,-3.34
23,C15G G71U,-1.94
24,C4G C11G C49A G51C G58A C73U C79U,-4.64

row,Variant,polymerase ribozyme fitness (log ratio)
1,C34A U59A C70U,-5.58
2,U78C U92G,-2.87
3,G44A C53U U125G,-2.16
4,G63A U78C C123A,-0.604
5,U7C C34A G35U C56U C94A G110C,-7.29
6,G44U G48A C76U C85A C88A,-2.99
7,G48U C62A U78G,-1.98
8,G44A C49U U54G U59A G61A A119G,-7.24
9,C53A C124G,0.737
10,C12U G110A,0.122
11,C73U A84G G117C,-4.85
12,C89A U106A G113C C123G,-1.57
13,C88G A91U U112A,-1.38
14,C62U G120C,0.344
15,C49U G60U U106A G127U U130G G135U,-1.71
16,G44A C56U C123U G135U,-0.56
17,G48U C124U U125A,0.397
18,C34A G117C,-4.31
19,U33C G63U A111U A121C C124A,-6.83
20,G47U U55A C70U C94G,-4.62
21,A43G G113A,-2.18
22,C8G G36U A119G U133G,0.386
23,A46C C53G G57C A66C C115U G122A,-6.53
